The values that follow come from PMC2213610 (The Journal of Cell Biology, 2008).

To fix the notation:
B1: His6-VASP-AAA (natural protein)
chain: MSETVICSSRATVMLYDDGNKRWLPAGTGPQAFSRVQIYHNPTANSFRVVGRKMQPDQQVVINCAIVRGVKYNQATPNFHQWRDARQVWGLNFGSKEDAAQFAAGMASALEALEGGGPPPPPALPTWSVPNGPSPEEVEQQKRQQPGPSEHIERRVANAGGPPAPPAGGPPPPPGPPPPPGPPPPPGLPPSGVPAAAHGAGGGPPPAPPLPAAQGPGGGGAGAPGLAAAIAGAKLRKVAKQEEASGGPTAPKAESGRSGGGGLMEEMNAMLARRRKAAQVGEKTPKDESANQEEPEARVPAQSESVRRPWEKNSTTLPRMKSSSSVTTSETQPCTPSSSDYSDLQRVKQELLEEVKKELQKVKEEIIEAFVQELRKRGSP
B2: His6-VASP-ADA, purified recombinant (natural protein)
chain: MSETVICSSRATVMLYDDGNKRWLPAGTGPQAFSRVQIYHNPTANSFRVVGRKMQPDQQVVINCAIVRGVKYNQATPNFHQWRDARQVWGLNFGSKEDAAQFAAGMASALEALEGGGPPPPPALPTWSVPNGPSPEEVEQQKRQQPGPSEHIERRVANAGGPPAPPAGGPPPPPGPPPPPGPPPPPGLPPSGVPAAAHGAGGGPPPAPPLPAAQGPGGGGAGAPGLAAAIAGAKLRKVDKQEEASGGPTAPKAESGRSGGGGLMEEMNAMLARRRKAAQVGEKTPKDESANQEEPEARVPAQSESVRRPWEKNSTTLPRMKSSSSVTTSETQPCTPSSSDYSDLQRVKQELLEEVKKELQKVKEEIIEAFVQELRKRGSP
B3: His6-VASP-AAE, purified recombinant (natural protein)
chain: MSETVICSSRATVMLYDDGNKRWLPAGTGPQAFSRVQIYHNPTANSFRVVGRKMQPDQQVVINCAIVRGVKYNQATPNFHQWRDARQVWGLNFGSKEDAAQFAAGMASALEALEGGGPPPPPALPTWSVPNGPSPEEVEQQKRQQPGPSEHIERRVANAGGPPAPPAGGPPPPPGPPPPPGPPPPPGLPPSGVPAAAHGAGGGPPPAPPLPAAQGPGGGGAGAPGLAAAIAGAKLRKVAKQEEASGGPTAPKAESGRSGGGGLMEEMNAMLARRRKAEQVGEKTPKDESANQEEPEARVPAQSESVRRPWEKNSTTLPRMKSSSSVTTSETQPCTPSSSDYSDLQRVKQELLEEVKKELQKVKEEIIEAFVQELRKRGSP

The first test concerns the target T1, GST-SPCN_SH3 (UniProt Q13813 970-1025). Kind of test: peptide or protein array.
With PPPPGPPPPPGAPPP [VASP peptide F8 with P182 changed to alanine], the binding result was “binds”.

For PPPPAPPPPPGPPPP [VASP peptide F8 with G175 changed to alanine], the binding result is on record as “binds”.

PAPPGPPPPPGPPPP [VASP peptide F8 with P172 changed to alanine]: the binding result was “binds”.

As for PPPPGPPPPPGPAPP [VASP peptide F8 with P183 changed to alanine], the binding result is listed as “binds”.

Regarding PPAGGPPPPPGPPPP [VASP peptide F2], the binding result is reported as “binds”.

Regarding PPPPGPPPPPGPPPA [VASP peptide F8 with P185 changed to alanine], the binding result is “binds”.

Consider PPPPGPPPPPGPPPP [VASP peptide F8], for which the binding result was “binds”.

As for PPPPGPPPPPAPPPP [VASP peptide F8 with G181 changed to alanine], the binding result is listed as “binds”.

For the molecule PPPAGPPPPPGPPPP [VASP peptide F8 with P174 changed to alanine], the binding result was “binds”.

APPPGPPPPPGPPPP [VASP peptide F8 with P171 changed to alanine]: the binding result is “binds”.

As to PPAPGPPPPPGPPPP [VASP peptide F8 with P173 changed to alanine], the binding result was “binds”.

For PPPPGPPPPPGPPAP [VASP peptide F8 with P184 changed to alanine], the binding result is recorded as “binds”.

The next test deals with T1, GST-SPCN_SH3. The experiment in a line: pull-down.
Take B1: the binding result was “binds”.

With B2, the binding result is on record as “binds”.

As to B3, the binding result is listed as “binds”.
